Test results as given in the supplement of paper PMC11780869.

Tested on: Bacillus subtilis
Test: cleaved RNA product abundance (RNA/gDNA barcode ratio) relative to median wild-type variant (ratio to wild type); higher = more accumulation of the downstream cleavage product
Details: cleavage site: cggR-gapA (positions -7 to +36 mutated)
How it was run: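 Truncated aprE or tetM reporter mRNAs with barcoded RNase Y cleavage-site windows, mutagenized from oligos at a 9% error rate, sat in the B. subtilis chromosome. Cells grew in LB at 37°C from OD600 0.0003 to 0.3. Gel-selected cleaved RNA was reverse transcribed and its barcodes sequenced with those from genomic DNA, collapsing by UMI. Cleaved product abundance equals the RNA:gDNA barcode ratio per construct over the median construct with the unmutated site.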

[1] = experiment (reporter, strain, medium): exp 2b: truncated aprE reporter, strain BJT200
[2] = experiment (reporter, strain, medium): exp 4a: truncated aprE reporter, strain BJT201 with 2% xylose (RNase J1 expressed)
[3] = experiment (reporter, strain, medium): exp 6: tetM reporter, strain 168

ACAGACGAAGGAGCCGCAAAGAAGTTATTAAGGGATGAATAATCCCTCAGGATAAATATCTCTCACTTATTTAAA
cleaved RNA product abundance [1]: 0.131

ACAGACGAAGGAGCCGCAAAGAAGTTATTAAGGGATGAATAATCCCTCAGTATAAATATCTCTCACTTATTTAAA
cleaved RNA product abundance [1]: 0.215 | cleaved RNA product abundance [2]: 0.305 | cleaved RNA product abundance [3]: 0.259

ACAGACGAAGGAGCCGCAAAGAAGTTATTAAGGGATGAATAATCCCTCAGTATATATATCTCTCACTTATTTAAA
cleaved RNA product abundance [2]: 0.242

ACAGACGAAGGAGCCGCAAAGAAGTTATTAAGGGATGAATAATCCCTCATAATAAATATCTCTCACTTATTTAAA
cleaved RNA product abundance [2]: 0.554

ACAGACGAAGGAGCCGCAAAGAAGTTATTAAGGGATGAATAATCCCTCATATAAATATCTCTCACTTATTTAAAG
cleaved RNA product abundance [1]: 0.394 | cleaved RNA product abundance [2]: 0.256

ACAGACGAAGGAGCCGCAAAGAAGTTATTAAGGGATGAATAATCCCTCATCATAAATATCTCTCACTTATTTAAA
cleaved RNA product abundance [1]: 0.192 | cleaved RNA product abundance [2]: 0.115

ACAGACGAAGGAGCCGCAAAGAAGTTATTAAGGGATGAATAATCCCTCATTAAAAATATCTCTCACTTATTTAAA
cleaved RNA product abundance [1]: 0.116

ACAGACGAAGGAGCCGCAAAGAAGTTATTAAGGGATGAATAATCCCTCATTATAAATAACTCTCACTTATTTAAA
cleaved RNA product abundance [2]: 0.248

ACAGACGAAGGAGCCGCAAAGAAGTTATTAAGGGATGAATAATCCCTCATTATAAATATCTCTCACTTATTTAAA
cleaved RNA product abundance [1]: 0.263 | cleaved RNA product abundance [2]: 0.383 | cleaved RNA product abundance [3]: 0.395

ACAGACGAAGGAGCCGCAAAGAAGTTATTAAGGGATGAATAATCCCTCATTATAAATCTCTCTCACTTATTTAAA
cleaved RNA product abundance [1]: 0.236

ACAGACGAAGGAGCCGCAAAGAAGTTATTAAGGGATGAATAATCCCTCATTTTAAATATCTCTCACTTATTTAAA
cleaved RNA product abundance [2]: 0.191

ACAGACGAAGGAGCCGCAAAGAAGTTATTAAGGGATGAATAATCCCTCCAAATAAATATCTCTCACTTATTTAAA
cleaved RNA product abundance [1]: 0.239 | cleaved RNA product abundance [2]: 0.313

ACAGACGAAGGAGCCGCAAAGAAGTTATTAAGGGATGAATAATCCCTCCACATAAATATCTCTCACTTATTTAAA
cleaved RNA product abundance [1]: 0.108

ACAGACGAAGGAGCCGCAAAGAAGTTATTAAGGGATGAATAATCCCTCCATATAAATATCTCTCACTTATTTAAA
cleaved RNA product abundance [1]: 0.243 | cleaved RNA product abundance [2]: 0.341 | cleaved RNA product abundance [3]: 0.34

ACAGACGAAGGAGCCGCAAAGAAGTTATTAAGGGATGAATAATCCCTCCATATAAATTTCTCTCACTTATTTAAA
cleaved RNA product abundance [2]: 0.23

ACAGACGAAGGAGCCGCAAAGAAGTTATTAAGGGATGAATAATCCCTCCCTATAAATATCTCTCACTTATTTAAA
cleaved RNA product abundance [2]: 0.212

ACAGACGAAGGAGCCGCAAAGAAGTTATTAAGGGATGAATAATCCCTCGATATAAATATCTCTCACTTATTTAAA
cleaved RNA product abundance [1]: 0.348 | cleaved RNA product abundance [2]: 0.419 | cleaved RNA product abundance [3]: 0.589

ACAGACGAAGGAGCCGCAAAGAAGTTATTAAGGGATGAATAATCCCTCGTTATAAATATCTCTCACTTATTTAAA
cleaved RNA product abundance [1]: 0.097 | cleaved RNA product abundance [2]: 0.157

ACAGACGAAGGAGCCGCAAAGAAGTTATTAAGGGATGAATAATCCCTCTAAATAAATATCTCTCACTTATTTAAA
cleaved RNA product abundance [1]: 0.36 | cleaved RNA product abundance [2]: 0.429

ACAGACGAAGGAGCCGCAAAGAAGTTATTAAGGGATGAATAATCCCTCTACATAAATATCTCTCACTTATTTAAA
cleaved RNA product abundance [2]: 0.441

ACAGACGAAGGAGCCGCAAAGAAGTTATTAAGGGATGAATAATCCCTCTAGATAAATATCTCTCACTTATTTAAA
cleaved RNA product abundance [2]: 0.266

ACAGACGAAGGAGCCGCAAAGAAGTTATTAAGGGATGAATAATCCCTCTATATAAACATCTCTCACTTATTTAAA
cleaved RNA product abundance [1]: 0.362

ACAGACGAAGGAGCCGCAAAGAAGTTATTAAGGGATGAATAATCCCTCTATATAAATACCTCTCACTTATTTAAA
cleaved RNA product abundance [2]: 0.407

ACAGACGAAGGAGCCGCAAAGAAGTTATTAAGGGATGAATAATCCCTCTATATAAATATCTCTCACTTATTTAAA
cleaved RNA product abundance [1]: 0.42 | cleaved RNA product abundance [2]: 0.489 | cleaved RNA product abundance [3]: 0.642

ACAGACGAAGGAGCCGCAAAGAAGTTATTAAGGGATGAATAATCCCTCTATATAAATCTCTCTCACTTATTTAAA
cleaved RNA product abundance [2]: 0.529

ACAGACGAAGGAGCCGCAAAGAAGTTATTAAGGGATGAATAATCCCTCTATATAATTATCTCTCACTTATTTAAA
cleaved RNA product abundance [1]: 0.29 | cleaved RNA product abundance [2]: 0.309

ACAGACGAAGGAGCCGCAAAGAAGTTATTAAGGGATGAATAATCCCTCTATATACATATCTCTCACTTATTTAAA
cleaved RNA product abundance [1]: 0.248 | cleaved RNA product abundance [2]: 0.226

ACAGACGAAGGAGCCGCAAAGAAGTTATTAAGGGATGAATAATCCCTCTATATATATATCTCTCACTTATTTAAA
cleaved RNA product abundance [2]: 0.418

ACAGACGAAGGAGCCGCAAAGAAGTTATTAAGGGATGAATAATCCCTCTATCTAAATATCTCTCACTTATTTAAA
cleaved RNA product abundance [2]: 0.101

ACAGACGAAGGAGCCGCAAAGAAGTTATTAAGGGATGAATAATCCCTCTATGTAAATATCTCTCACTTATTTAAA
cleaved RNA product abundance [1]: 0.16 | cleaved RNA product abundance [2]: 0.0964

ACAGACGAAGGAGCCGCAAAGAAGTTATTAAGGGATGAATAATCCCTCTCTATAAATATCTCTCACTTATTTAAA
cleaved RNA product abundance [2]: 0.372

ACAGACGAAGGAGCCGCAAAGAAGTTATTAAGGGATGAATAATCCCTCTGTATAAATATCTCTCACTTATTTAAA
cleaved RNA product abundance [1]: 0.163 | cleaved RNA product abundance [2]: 0.224

ACAGACGAAGGAGCCGCAAAGAAGTTATTAAGGGATGAATAATCCCTGAAAATAAATATCTCTCACTTATTTAAA
cleaved RNA product abundance [2]: 0.615

ACAGACGAAGGAGCCGCAAAGAAGTTATTAAGGGATGAATAATCCCTGAACATAAATATCTCTCACTTATTTAAA
cleaved RNA product abundance [2]: 0.242

ACAGACGAAGGAGCCGCAAAGAAGTTATTAAGGGATGAATAATCCCTGAAGATAAATATCTCTCACTTATTTAAA
cleaved RNA product abundance [2]: 0.387

ACAGACGAAGGAGCCGCAAAGAAGTTATTAAGGGATGAATAATCCCTGAATATAAACATCTCTCACTTATTTAAA
cleaved RNA product abundance [2]: 0.413

ACAGACGAAGGAGCCGCAAAGAAGTTATTAAGGGATGAATAATCCCTGAATATAAATAGCTCTCACTTATTTAAA
cleaved RNA product abundance [2]: 0.256

ACAGACGAAGGAGCCGCAAAGAAGTTATTAAGGGATGAATAATCCCTGAATATAAATATCTCTCACTTATTTAAA
cleaved RNA product abundance [1]: 0.566 | cleaved RNA product abundance [2]: 0.684 | cleaved RNA product abundance [3]: 0.675

ACAGACGAAGGAGCCGCAAAGAAGTTATTAAGGGATGAATAATCCCTGAATATATATATCTCTCACTTATTTAAA
cleaved RNA product abundance [1]: 0.477 | cleaved RNA product abundance [2]: 0.598

ACAGACGAAGGAGCCGCAAAGAAGTTATTAAGGGATGAATAATCCCTTAAAATAAATATCTCTCACTTATTTAAA
cleaved RNA product abundance [2]: 0.862

ACAGACGAAGGAGCCGCAAAGAAGTTATTAAGGGATGAATAATCCCTTAATAAAAATATCTCTCACTTATTTAAA
cleaved RNA product abundance [3]: 0.227

ACAGACGAAGGAGCCGCAAAGAAGTTATTAAGGGATGAATAATCCCTTAATATAAACATCTCTCACTTATTTAAA
cleaved RNA product abundance [1]: 0.304 | cleaved RNA product abundance [2]: 0.216

ACAGACGAAGGAGCCGCAAAGAAGTTATTAAGGGATGAATAATCCCTTAATATAAATAACTCTCACTTATTTAAA
cleaved RNA product abundance [2]: 0.433

ACAGACGAAGGAGCCGCAAAGAAGTTATTAAGGGATGAATAATCCCTTAATATAAATATCTCTCACTTATTTAAA
cleaved RNA product abundance [1]: 0.782 | cleaved RNA product abundance [2]: 0.595 | cleaved RNA product abundance [3]: 0.623

ACAGACGAAGGAGCCGCAAAGAAGTTATTAAGGGATGAATAATCCCTTAATATAAATATTTCTCACTTATTTAAA
cleaved RNA product abundance [2]: 0.494

ACAGACGAAGGAGCCGCAAAGAAGTTATTAAGGGATGAATAATCCCTTAATATACATATCTCTCACTTATTTAAA
cleaved RNA product abundance [2]: 0.232

ACAGACGAAGGAGCCGCAAAGAAGTTATTAAGGGATGAATAATCCCTTAATATAGATATCTCTCACTTATTTAAA
cleaved RNA product abundance [2]: 0.866

ACAGACGAAGGAGCCGCAAAGAAGTTATTAAGGGATGAATAATCCCTTAATATATATATCTCTCACTTATTTAAA
cleaved RNA product abundance [2]: 0.895

ACAGACGAAGGAGCCGCAAAGAAGTTATTAAGGGATGAATAATCCCTTATTATAAATATCTCTCACTTATTTAAA
cleaved RNA product abundance [2]: 0.813

ACAGACGAAGGAGCCGCAAAGAAGTTATTAAGGGATGAATAATCCCTTCAATATAAATATCTCTCACTTATTTAA
cleaved RNA product abundance [2]: 0.904

ACAGACGAAGGAGCCGCAAAGAAGTTATTAAGGGATGAATAATCCCTTTATATAAATATCTCTCACTTATTTAAA
cleaved RNA product abundance [1]: 1.14 | cleaved RNA product abundance [2]: 0.977

ACAGACGAAGGAGCCGCAAAGAAGTTATTAAGGGATGAATAATCCGTAAATATAAATATCTCTCACTTATTTAAA
cleaved RNA product abundance [2]: 0.28

ACAGACGAAGGAGCCGCAAAGAAGTTATTAAGGGATGAATAATCCGTCAAAATAAATATCTCTCACTTATTTAAA
cleaved RNA product abundance [2]: 0.262

ACAGACGAAGGAGCCGCAAAGAAGTTATTAAGGGATGAATAATCCGTCAATAAAAATATCTCTCACTTATTTAAA
cleaved RNA product abundance [2]: 0.173

ACAGACGAAGGAGCCGCAAAGAAGTTATTAAGGGATGAATAATCCGTCAATATAAATATCTCTCACTTATTTAAA
cleaved RNA product abundance [1]: 0.167 | cleaved RNA product abundance [2]: 0.234 | cleaved RNA product abundance [3]: 0.247

ACAGACGAAGGAGCCGCAAAGAAGTTATTAAGGGATGAATAATCCGTCAATATAATTATCTCTCACTTATTTAAA
cleaved RNA product abundance [2]: 0.119

ACAGACGAAGGAGCCGCAAAGAAGTTATTAAGGGATGAATAATCCGTCAATATAGATATCTCTCACTTATTTAAA
cleaved RNA product abundance [2]: 0.314

ACAGACGAAGGAGCCGCAAAGAAGTTATTAAGGGATGAATAATCCGTCAATATCAATATCTCTCACTTATTTAAA
cleaved RNA product abundance [2]: 0.15
